The results in this text go back to a protein production outcome set (Wang et al. 2014).
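Note: failed if final PepcDB status was selected cloned or expressed and not failed if soluble or beyond.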

A short description of the series: label from the status in PepcDB records.
With “MINIVIVSHSKHLAEGIEALANQMLNPTHCRLAIAAGVDDEAHPIGTDAVKIMTAIESLAEADAIIVMMDLGSAILSTETAIELLDTELAQKVTLCSAPLVEGTLAAVVAASSGASLEKVLEEANHALTPKKMQLGENMGGSEPNDVTPSIQMHGKEAHWVVKNPHGLHVRPAATLVELLSKFRADYQLIKGDRRINPLSLNQLSLIQIRQGDEITLIASGEQENEAIDAFLALAKQGFGEALPDELTEQSLTGTLVPASPIKGPAFIWHELELAPIENLSAPLDSTIQIEQFNQAIKDTLNDLKHYAEKANHTLGEQIGAIFNGHIMMLDDEELLTNVIDRIKTDNVSAQQSWTNEMKERIQLYRTLSDPYLRARELDLRDLRNQVLYHLQQKTPPKFTPSQPSILVAKELFPSTLIQFDATQLLAITLAEGDSCSHSAIIATQMGLPMLVHLGDGLLKIKEAQELTLDLKSSELIIGSIN”, the protein production entry is “failed”.
Take “MINKDTQLCMSLSGRPSNFGTTFHNYLYDKLGLNFIYKAFTTQDIEHAIKGVRALGIRGCAVSMPFKETCMPFLDEIHPSAQAIESVNTIVNDNGFLRAYNTDYIAIVKLIEKYHLNKNAKVIVHGSGGMAKAVVAAFKNSGFEKLKIYARNVKTGQYLAALYGYAYINSLENQQADILVNVTSIGMKGGKEEMDLAFPKAFIDNASVAFDVVAMPVETPFIRYAQARGKQTISGAAVIVLQAVEQFELYTHQRPSDELIAEAAAFARTKF”: the protein production result is recorded as “not failed”.
As to “MINMCYNFENVKKAYEDQLKNYIKNSLIPNLSSHANNEVVKISMKKLANLGFGYLVDSTLSSITGYYKVRDWIEELLKEELQKSGENKCCNIVLCDYPEEFEISMREIPYYVNKVVKFNGVIISASYPCVLSKKHLYICPKCGRIKEVYFSELFWDDKVFCEFCGGKMEFANVMDYENFQELVVQDLSDESEYYGIEKNPIVWYCGAKPYYFGHVKITGIVREVPRSSKSRIYELIVQAINVEKLGVEKSLINLTEEDVKNIKKVAKRGDIIDILADILIPPLLCDDAIVRKAILIQQIAPYLEDIGKINILLVTEVGIDKTAILKRIGNIPGNNFINIAALKEEELATPYDKRSNILGKFYTVCGGVIPRTLGVLCIDDFNENNKLSTKLSEAFERNVLTTNKGSFYCVPAECSFLCACYPKTKFRKFDQKKSIIKQIGISSILLKNFDLIFPIRDIPDKDRDEEVAKYIFLKYINSDNEEIEGYDYVFVDVGGEKIKIDFEFLKKYVVYSRQITPKITDEVIEKISNWYDEMRKNHYITAKQLNTVIKLSIAVARAKLKECVDEDDVKEAIDIIMHYLKQVVYNPKKGIIDVILLYKNKT”, the protein production entry is reported as “failed”.
The same measure for “MINYKKKIAALMLLATCLSGCSYDLKDLQHLKSKSSFDTVGIKILCEHKKYSEAMKQIDDYLKKHPDDKVALSEKGYVLVSQDKNEDGLLVLLKVNDKYPNYDVTLNNISWAYNNLKMYKLANKYADLALKQTPNSSEELSNKGTALFGLKNYKAAEKYYDKALEKKSTDKVAIWGKALSLYKEKSYSKSLTYFKKYVIVDSSDIQASYYMEKCYIALNDVDGAIKEFKSDIIADPKNKGNYFALGDMYRKKTDYSSALSCYDTLSEIDPEDPEIYFQKAICLVKSGDKDGACENLKLTLSYDSEYVSDIEEEPAFDALKDYDKFKEILNSK”: “failed”; for “MIPIVDSRIGAYLDGLLPEADPVVAAMEQIARERNIPIVDRQTGRLLYLLARIKQPQLVVVPGDGLGCASWWFARAISISSRVVMIDPDRDNVEHARRMLHDNGLIDRVELQVGDPLGIAAGQRDIDILFMDCDVFNGADVLERMNRCLAKNALLIAVNALRRGSVAESHEDPETAALREFNHHLSRRRDFFTTIVPVGNGVLLGYRLS”: “not failed”.
As for “MIPPYREHPLREVLINELHARPSETIEAPVRLSHLAVLTGEITDPSLDHLGLLCARMGETVPAKGATRFNANLGGLGLQFERHTEFCTYTFQRRGRTGDLPFDQPALDMVPPDWLATLPGQVLSAVHLVVEPKDTPEYSIEELSIRHFAGNPVVGSAVGGGAAFAYSDLRLHDDRCLRMLIRDVDLNPRHAGRLVQRLLELNTYRALALLALPMARESSPGLRRIDMVLAHVAARMADPNGVDSDAELLSELSNLTAEVESLAAANSYRIAATRAYHALVQRRLEELREVRLDGVVTFGAFMDRRLTPAMATVDSVSERIESLSERGARVASLLRARVEVDLQAQNKRLLESMNRRARIQLRLQEAVEGLSVVAISYYLVGLVGYMAKGVSGAGVEVKESVVTAIAVPVIVASVWLVLRRAKRAMLNRAD”, the protein production entry is recorded as “failed”.
Take “MIQKQHESKLEVGQTFPVTIKRLGINGEGVGYFKRQVVFIPGALPGEEVVAETTKIQRGFAEAKVKKVRKASPHRVKAPCPVYEECGGCQLQHLDYKEQLNQKRDIVVQAFEKYMKNSMEEKIRPTLGMENPWHYRNKSQLQVGRKDEKVITGLYKQNSHQLIDIAHCMIQHKATNEATKVVRRILEKLNVSIYNEKKQKGLVRTIVTRTAVQTGEVQVTLITTKEELPNKEQFIAEVQKQMPAVKSIMQNVNWRKTSVIFGDKTFKLAGKEVIQETLGDLSFELSARAFFQLNPEQTVVLYNEAKKAAALTGNEKIVDAYCGVGTIGLWLANDAAEVRGMDVIPEAIADARKNAKRHGFTNTKYEAGKAEQWLPKWVKEGWRPDVIVVDPPRTGCDDKLLETILKVKPKQVVYVSCNPSSLARDVQALMKSYEVEYVQPVDMFPHTAHVENVVKLTLK”: the protein production result is recorded as “failed”.
The entry for “MIQQRANFDWMLKELADGVPGVHQIVVLSADGLRIARYGGDPDAADRVAAACAGLQSLAGAVATEIPHSDGKMRMVIIEMDGAYFYMMAAGPNAYLAVLSDVTAEAGLMSNRMRDLVVRIGAHLTSPPRRNGQTV” is “failed”.
The entry for “MIRKLNKKDQEILKTLGSIWLNSNIATHNFINEEYWVNNYDNVIESFKTAEIIVYEKNTEIIGFCGLIDNYIAGMFIKKSSRNQ” is “failed”.
The entry for “MIRLATKNDLLSITQLVKEAKQIMEEFNNNQWDDEYPAKEHFEEDIENKTLYVLDVDHTIYGFIVIDQNQSEWYDDIDWPVNRNGAYVIHRLAGSKQYKGAATELFQFAIDLANEHDIHVILTDTFALNKPAQGLFEKFGFTKVDEIEIDYHPFDRGAPFYAYYKNI” is “failed”; for “MIRLGLTSFSEHDYLTGKKRSTLYEYASHLPLVEMDTAYYGIPPKERVAEWVKAVPENFRFVMKVYSGISCQGEWQTYYASEEEMITAFLESMAPLIESKKLFAFLVQFSGTFGCTKENVAYLQKIRHWFKDLPIAIELRNNSWYQPNFVKQMLQFMKENQFSLVIVDEPQIPTNPVPFYPYVTNPNLVLFRFHGRNAAGWLANDAEWRKKRTLYHYNTQEIADLSEAVLKMSQEAKEVGVIFNNNSGGDAAENALQMQKVLNLSYDDLNPKQLDLF” it is “not failed”; for “MIRLPRAGTVLAVRGTAARSRRRLSTMARMPDTNTTDLWERRTQGPLLALAVLFAVAYALPVVMPDAPEQLLFACHVANWVVWAAFAIDYAVRLWLSEDRLRFVRSHPLALLAVLLPLLRPLRLLKLVSMLLLAGQRARMASQVRVTTYVAGSCLGLLVFGALAVLEVERGRPGASIQTLGDALWWAFTTMTTVGYGDMAPTTGLGRLLAIGLMLSGIALLGVVTANIAAWFISRFERDDAEERRQTAAIEALTEEVRALRAQVATLRAPQGAPSELNVLPAPTREHD” it is “failed”.
In the case of “MIRLTIEETNLLSIYNEGGKRGLMENINAALPFMDEDMRELAKRTLAKIAPLTENEYAELAIFAADEVLEHHHHHH”, the protein production entry is given as “not failed”.
The entry for “MIRNASIINVFRVSLALIVIVASASSLSAFWLLEKSEQDAELINVAGSHRMKAYKFALQLSSGKKVQASETAQEIDTLWEQPLLHRHFVKAGGSIQQLAKDARTEWQRVHSEIAEQDFARFSQQQSNAIDNYVNQLDTLVGQLQEHSERRMETVRSSLALASFFIVAIFFFLLTVLKRKINQPLRHLLAVSKRLGQGDFTAKSKIDNEDEIGQLSRTMNKMSETVSYFYGGLERRVEQQTQELSRKNKVLSFLYDTARSIIVHSYDYNNYQQVIEKLYEIGEVNDIELCLLTEEGNRPFLQLQPRPSSHEPCEAGDCATCLKAGPGASVIEDKLVYRFVLKREDQNYGVLIVRCEQGQPLATWQQQLMSSTADQLALSQSLKSEEEQVRRLALMHERTVIARELHDSLAQALSYLKIQVTRLHKGIEKNDRATIDDVSNELREGLNSAYRQLRELLTTFRLKVDGSGLYSALQTTVKQLTEQSNMVVHLDYRLNNIPLVPHEEIHLLQIIREASQNAVNHSQGSEVHISLSQPSGQDVELKITDDGIGLPENAEKVNHYGLAIMQERSRNLGGEIKISRLESGGTEVCFTFTPDYLLQ” is “failed”.
The entry for “MIRNLYNKIKNCKLKIAAIILLIFLIVTGYIYYSRYFYVLRSPQRVKEFILSYGKFGFFAFFVMQMLQVVAFFIPGEIIQIAGGYIFGTFWGTVISLLGITAGSAVAFYLSNKLGRPFVKKISGKQNISFFEKLIKNGEIKYVITLIYLVPGLPKDILAYVCGITDLSLKDFIIYSTIGRFPGIFISAYFGNTITHGNIKMMVIIAVISVVLFGLGVFKGKYLLTKISSIRSKKQK” is “failed”; for “MIRNVLKLLALLADEIVIVALVIIFLRRVSARLAVIVGGALILFNLFLVKLLWGTLKKKAEVGAEALIGEKAVVVEDLNPVGLVKVKNELWTAECISGTARRGEKVRIVQVKGAKLLVEKDDNAGKFL” it is “failed”.
For “MIRVTFLPDQVSVEATAGEAWLSVAARAGVEIPTGCRMGSCGACTLELEDGQEIRACISTIAGDRDPAPLEDCPHITAYVFRDPTW”, the protein production result is “failed”.
The same measure for “MISASWKSAGKTTVSLGLLRLLAENGVPVVSFKKGPDYIDPMWHRVASSGECYNLDTWMMGEAACRDTFIRNCARRPGSIALIEGNHGLHDGMDMAGADSSAGLAALLDAPVLLVIDSRRMNRGVAAQVLGLQAMPPKVRIAGVILNHVTSSRQESKQRAAIETFCNVPVLGAIPADSSLLLPERHLGLVTVGEASDAEAFIRVAAQQVERHCDFAAIRKLFEEASPLSHSEPREVFSPKKEATVKIGVFRDAAFCFYYPDNLDALRDAGAELVFIDTFKTTALPEIDGLYLGGGFPESFFAELSANTSLLRDMRGRIEAGIPAWAECGGLIYLCRSATWEGRQWPLASVLPIDIAYQRKPAGCGYLELESRAGSGWFPVGERVRAHEFHYSKPVAGNVDLACQFDVARGFGLTGREDGLLYRNLFASYAHFHAAANPGWAERFVGLALKFKEQGRLERD”: “failed”; for “MISHFGAPLIRYDPALQGHAVPQLDMKTFTRRQHRPRPLILAVGLGLGIALTAPLAAAQNAPSSQPWRDTALTADQRADRLLAQMTEDEKFQMLRSYLGLGTDKIPKPAGALGSAGYVPGIARLGIPAQQLADAGVGVTNPGGIRKGDYATAMPSVLSTASSWNRQLAYAGGKTMGRESWQQGFNVLLAGSVNLQRDPRNGRNFEYAGEDPLLAGTMVGESIRGVQSEHVLSTMKHFALNDMETRRNFHSAQIGEQAMHESDLLAFEIALKIGDPASVMCSYNKINGVYGCEHDYLLNQVLKQEWKYPGYVMSDWGGVHSGSKAALAGLDQESAGEVFDVAVFFDAPLRMAVSAGVVPRARFDDMVKRILRSLFAHGAFDYPTQRQPIDGKAGLLAAQHVAEAGSVLLRNEQAMLPVSQDVRRIAVIGGYADKGVMSGGGSSRVDVTINGGNAVPGITPTTWPGPVIIHPSSPLQALRAALPNAQIDYVDGKDRAAAARAAKAADVAIVFATQWATESVDLPDMRLPDNQDALIEAVAKANPKTTVVLETNGPVRMPWAERVPAVLQAWYPGIGGGEAIANLLTGTVNPSGHLPVTWPVDESQLPRPSIPGLGFKPAKPGEDTIDYAIEGANVGYKWFAAHKLTPRYPFGHGLSYTQFRMDGLRVEANGSQLTASFEVENIGQREGAAVPQLYVTLPDGHATPLRLIGWQKLTLKPGEKRSVQVVAEPKTLADFDAQARRWTIAAGTYRVQLARSASEPVQSAAVTLQAAQLP”: “failed”.
